T1: CR8 bHLH domain (BHLHE40/DEC1) (human, UniProt O14503 SEQ:52-107)
T1 chain: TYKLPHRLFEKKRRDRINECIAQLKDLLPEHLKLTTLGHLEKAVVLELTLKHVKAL

T2: daughterless (da) bHLH domain (Drosophila melanogaster, UniProt P11420 P11420:554-607)
T2 sequence: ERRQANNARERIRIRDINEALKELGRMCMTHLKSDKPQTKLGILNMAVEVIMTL

B1: Class C probe (AS-C T5 promoter) (dsDNA)
DNA 1: GATCGGCAGCCGGCACGCGACAGGGCC
DNA 2: GATCGGCCCTGTCGCGTGCCGGCTGCC
B2: Class B E-box probe (USF site, adenovirus major late promoter) (dsDNA)
DNA 1: GATCGGTGTAGGCCACGTGACCGGGTGT
DNA 2: GATCACACCCGGTCACGTGGCCTACACC
B3: Class A E-box probe (AS-C T5 promoter) (dsDNA)
DNA 1: GATCGTAGTCACGCAGGTGGGATCCCTA
DNA 2: GATCTAGGGATCCCACCTGCGTGACTAC

What was measured:
[1] = biological target: T1, CR8 bHLH domain (BHLHE40/DEC1); assay: EMSA; same buffer; conditions: tags: N-terminal His tag (pRSET-A, Xpress System), 16.6 kD with tag; chain copies: 2 (homodimer, stated); label: 32P 5' end; 5' GATC overhangs
Text: (§1) The oligonucleotide probes used for the electrophoretic mobility shift assay (EMSA) are as follows: the Class A site used was the CACCTG hexamer (CAGGTG for the opposite strand) from the T5 promoter region of the Drosophila AS-C (Villares, R. et al. (1987) *Cell* 550:415–424) (5'-[…]-3' (SEQ ID NO:17) and 5'-[…]-3' (SEQ ID NO:18) for the opposite strand), the Class B site was the CACGTG hexamer from the USF binding site in the adenovirus major late promoter (Gregor, P. D. et al. (1990) *Genes & Dev.* 4:1730–1740) (5'-[…]-3' (SEQ ID NO:19) and 5'-[…]-3') (SEQ ID NO:20), the Class C site was the CACGCG hexamer (CGCGTG for the opposite strand) from the AS-C T5 promoter (5'-[…]-3' (SEQ ID NO:21) and 5'-[…]-3') (SEQ ID NO:22), and the N-box (CACNAG) was the double hexamer sequence from the Enhancer of split [E(spl)] m8 promoter (Klimbt, C. et al. (1989) *EMBO J.* 8:203–210) (5'-[…]-3' (SEQ ID NO:23) and 5'-[…]-3' (SEQ ID NO:24). One strand of the oligonucleotide was labeled with [g-32P]ATP by T4 polynucleotide kinase, hybridized with three times excess of the opposite strand, and purified using MERmaid oligonucleotide purification kit (BIO 101). […] Samples were analyzed on a 5% native polyacrylamide gel and visualized by autoradiography.

[2] = biological target: T1, CR8 bHLH domain (BHLHE40/DEC1); assay: EMSA; 20 mM Hepes pH 7.6, 50 mM KCl, 10 mM DTT, poly(dI-dC), room temperature; self-competition partial at 50-fold and complete at 500-fold excess; conditions: tags: N-terminal His tag (pRSET-A, Xpress System), 16.6 kD with tag; chain copies: 2 (homodimer, stated); label: 32P 5' end; 5' GATC overhangs
Description: One strand of the oligonucleotide was labeled with [g-32P]ATP by T4 polynucleotide kinase, hybridized with three times excess of the opposite strand, and purified using MERmaid oligonucleotide purification kit (BIO 101). 150 ng of the protein was allowed to bind to 50,000 cpm (equivalent to 0.5 ng in a typical experiment) of the labeled probe for 15 min at room temperature in 20 mM Hepes, pH 7.6, 50 mM KCl, 10 mM DTT, 5% glycerol, 0.5 mM EDTA and 0.3 mg/ml BSA. Two microgram of poly (dI-dC) was added to each […] reaction as on-specific DNA. Samples were analyzed on a 5% native polyacrylamide gel and visualized by autoradiography.
To examine the relative binding affinity, a large excess of non-labeled oligonucleotide was added to the reaction as competitor. […] 0.5 ng of the radiolabeled Class B probe was incubated with CR8 bHLH in the absence (lane 1) or the presence (lanes 2 to 7) of either 25 ng (50-fold excess; lanes 2, 4 and 6) and 250 ng (500-fold excess; lanes 3, 5 and 7) of unlabeled competitors. […] Thus, since all these experiments were done in the absence of other HLH proteins, it appears that CR8 bHLH bound to the Class B sequence as a homodimer with the highest affinity.

[3] = biological target: T2, daughterless (da) bHLH domain; assay: EMSA; positive control; conditions: tags: supplied by Dr. Michael Caudy, Cornell University Medical College; label: 32P 5' end; 5' GATC overhangs
Text: as §1

Binder	binding result [1]	binding result [2]	binding result [3]
B1	binds	–	–
B2	–	binds	–
B3	no binding	–	binds

From patent US5871960, “Nucleic acids encoding CR5 polypeptide, vector and transformed cell thereof, and expression thereof” (Trustees of Dartmouth College)
